Source: US20230227547A1 (IPROGEN BIOTECH, published 2023)
One block for each binder: values may come before it.

Experiments:
[1] = biological target: T1, Epithelial cell adhesion molecule (EpCAM) (human, UniProt P16422 24-314); assay: fluorescence microscopy, goat anti-human IgG-AlexaFluor488, LnCap cells, 100 nM mAb, 3 h
T1 construct: whole, on cells
T1 sequence (looked up): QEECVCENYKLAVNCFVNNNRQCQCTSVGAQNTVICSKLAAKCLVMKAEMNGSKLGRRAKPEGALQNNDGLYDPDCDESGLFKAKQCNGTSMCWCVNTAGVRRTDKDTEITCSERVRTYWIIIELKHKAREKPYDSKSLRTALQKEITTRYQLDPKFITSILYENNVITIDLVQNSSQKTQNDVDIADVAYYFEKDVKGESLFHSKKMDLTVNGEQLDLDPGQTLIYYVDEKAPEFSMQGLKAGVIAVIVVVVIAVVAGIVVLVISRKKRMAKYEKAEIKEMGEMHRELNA
Experimental: (§1) Delivery assay. […] The permeabilized cells were then incubated with 5% (v/v) FBS, 0.05% (v/v) Tween-20 in PBS at 37 degree Celsius incubator for 30 minutes. […] After incubation, the labelled cells were washed twice with PBS, and stored in storage buffer [5% (v/v) FBS in PBS] at 4 degree Celsius until fluorescence microscope imaging.

[2] = biological target: T1, Epithelial cell adhesion molecule …; assay: fluorescence microscopy, goat anti-human IgG-AlexaFluor488, LnCap cells, 100 nM mAb-LL37, 3 h
Experimental: as §1

[3] = biological target: T2, folate receptor (human, UniProt P15328 25-234); assay: summary sentence of Example 3
T2 construct: whole, on cells; also called folate receptor alpha
T2 sequence (P15328 25-234): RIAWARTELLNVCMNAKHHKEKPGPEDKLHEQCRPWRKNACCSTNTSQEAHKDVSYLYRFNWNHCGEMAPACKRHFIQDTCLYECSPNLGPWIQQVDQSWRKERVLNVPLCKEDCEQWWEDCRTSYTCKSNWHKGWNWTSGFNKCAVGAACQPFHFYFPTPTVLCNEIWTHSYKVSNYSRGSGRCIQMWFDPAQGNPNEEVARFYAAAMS

[4] = biological target: T3, sodium-dependent phosphate transport protein 2B (NaPi2b) (human, UniProt O95436 1-690); assay: fluorescence microscopy, goat anti-human IgG-AlexaFluor488, OVCAR3 cells, 100 nM mAb, 3 h
T3 construct: whole, on cells
T3 sequence (looked up): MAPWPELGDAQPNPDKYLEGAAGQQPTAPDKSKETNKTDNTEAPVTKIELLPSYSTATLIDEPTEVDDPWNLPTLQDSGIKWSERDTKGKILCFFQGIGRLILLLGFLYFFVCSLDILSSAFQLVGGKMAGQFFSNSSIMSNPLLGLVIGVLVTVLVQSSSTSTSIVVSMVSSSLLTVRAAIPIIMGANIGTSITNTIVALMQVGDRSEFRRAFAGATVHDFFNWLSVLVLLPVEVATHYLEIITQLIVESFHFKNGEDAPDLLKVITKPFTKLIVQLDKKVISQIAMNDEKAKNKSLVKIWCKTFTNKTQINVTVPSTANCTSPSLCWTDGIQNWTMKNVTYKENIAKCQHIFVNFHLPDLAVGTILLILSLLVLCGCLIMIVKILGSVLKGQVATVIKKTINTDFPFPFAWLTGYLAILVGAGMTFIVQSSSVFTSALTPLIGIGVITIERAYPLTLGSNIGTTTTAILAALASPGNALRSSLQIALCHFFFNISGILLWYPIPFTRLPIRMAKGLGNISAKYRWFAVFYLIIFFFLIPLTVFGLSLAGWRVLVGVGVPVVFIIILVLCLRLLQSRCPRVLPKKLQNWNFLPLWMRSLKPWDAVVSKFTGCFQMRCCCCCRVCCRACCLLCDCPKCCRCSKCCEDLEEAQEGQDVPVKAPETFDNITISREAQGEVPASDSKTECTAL
Experimental: as §1

[5] = biological target: T4, CD33A (human, UniProt P20138 18-364); assay: summary sentence of Example 3
T4 construct: whole, on cells
T4 sequence (P20138 18-364): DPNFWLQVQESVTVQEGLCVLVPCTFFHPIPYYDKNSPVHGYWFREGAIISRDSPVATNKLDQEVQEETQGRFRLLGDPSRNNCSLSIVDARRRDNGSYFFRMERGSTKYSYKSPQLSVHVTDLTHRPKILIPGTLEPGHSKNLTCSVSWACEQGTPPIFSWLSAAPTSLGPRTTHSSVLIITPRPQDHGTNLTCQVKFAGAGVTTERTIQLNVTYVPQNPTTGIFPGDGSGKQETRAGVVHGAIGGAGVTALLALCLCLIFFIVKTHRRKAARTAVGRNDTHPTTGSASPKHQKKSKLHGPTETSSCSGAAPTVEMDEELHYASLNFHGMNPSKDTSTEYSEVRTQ

[6] = biological target: T3, sodium-dependent phosphate transport …; assay: fluorescence microscopy, goat anti-human IgG-AlexaFluor488, OVCAR3 cells, 100 nM mAb-LL37, 3 h
Experimental: as §1

binding result [1]: binds
B1: Anti-EpCAM mAb, Citatuzumab (antibody, human IgG1, kappa)
heavy: not shown
light: DIQMTQSPSSLSASVGDRVTITCRSTKSLLHSNGITYLYWYQQKPGKAPKLLIYQMSNLASGVPSRFSSSGSGTDFTLTISSLQPEDFATYYCAQNLEIPRTFGQGTKVEIKRTVAAPSVFIFPPSDEQLKSGTASVVCLLNNFYPREAKVQWKVDNALQSGNSQESVTEQDSKDSTYSLSSTLTLSKADYEKHKVYACEVTHQGLSSPVTKSFNRGECGGGGSLPMTGGHG

binding result [2]: binds
B2: Citatuzumab-LL37 (LL37-conjugated anti-EpCAM antibody citatuzumab) (antibody, human IgG1, kappa)
heavy: not shown
light: DIQMTQSPSSLSASVGDRVTITCRSTKSLLHSNGITYLYWYQQKPGKAPKLLIYQMSNLASGVPSRFSSSGSGTDFTLTISSLQPEDFATYYCAQNLEIPRTFGQGTKVEIKRTVAAPSVFIFPPSDEQLKSGTASVVCLLNNFYPREAKVQWKVDNALQSGNSQESVTEQDSKDSTYSLSSTLTLSKADYEKHKVYACEVTHQGLSSPVTKSFNRGECGGGGSLPMTGGLLGDFFRKSKEKIGKEFKRIVQRIKDFLRNLVPRTES

binding result [3]: binds
B3: Anti-folate receptor mAb-LL37 (Mirvetuximab-LL37) (antibody, human IgG1, kappa)
heavy: not shown
light: DIVLTQSPLSLAVSLGQPAIISCKASQSVSFAGTSLMHWYHQKPGQQPRLLIYRASNLEAGVPDRFSGSGSKTDFTLTISPVEAEDAATYYCQQSREYPYTFGGGTKLEIKRTVAAPSVFIFPPSDEQLKSGTASVVCLLNNFYPREAKVQWKVDNALQSGNSQESVTEQDSKDSTYSLSSTLTLSKADYEKHKVYACEVTHQGLSSPVTKSFNRGECGGGGSLPETGGLLGDFFRKSKEKIGKEFKRIVQRIKDFLRNLVPRTES
notes: also called anti-folate receptor mAb (mirvetuximab) with LL37 conjugation

binding result [4]: binds
B4: Anti-NaPi2b mAb, Lifastuzumab (antibody, human IgG1, kappa)
heavy: not shown
light: DIQMTQSPSSLSASVGDRVTITCRSSETLVHSSGNTYLEWYQQKPGKAPKLLIYRVSNRFSGVPSRFSGSGSGTDFTLTISSLQPEDFATYYCFQGSFNPLTFGQGTKVEIKRTVAAPSVFIFPPSDEQLKSGTASVVCLLNNFYPREAKVQWKVDNALQSGNSQESVTEQDSKDSTYSLSSTLTLSKADYEKHKVYACEVTHQGLSSPVTKSFNRGECGGGGSLPMTGGHG

binding result [5]: binds
B5: Anti-CD33A mAb (Vadastuximab)-LL37 (antibody, human IgG1, kappa)
heavy: not shown
light: DIQMTQSPSSLSASVGDRVTINCKASQDINSYLSWFQQKPGKAPKTLIYRANRLVDGVPSRFSGSGSGQDYTLTISSLQPEDFATYYCLQYDEFPLTFGGGTKVEIKRTVAAPSVFIFPPSDEQLKSGTASVVCLLNNFYPREAKVQWKVDNALQSGNSQESVTEQDSKDSTYSLSSTLTLSKADYEKHKVYACEVTHQGLSSPVTKSFNRGECGGGGSLPMTGGLLGDFFRKSKEKIGKEFKRIVQRIKDFLRNLVPRTES

binding result [6]: binds
B6: Lifastuzumab-LL37 (LL37-linked anti-NaPi2b mAb) (antibody, human IgG1, kappa)
heavy: not shown
light: DIQMTQSPSSLSASVGDRVTITCRSSETLVHSSGNTYLEWYQQKPGKAPKLLIYRVSNRFSGVPSRFSGSGSGTDFTLTISSLQPEDFATYYCFQGSFNPLTFGQGTKVEIKRTVAAPSVFIFPPSDEQLKSGTASVVCLLNNFYPREAKVQWKVDNALQSGNSQESVTEQDSKDSTYSLSSTLTLSKADYEKHKVYACEVTHQGLSSPVTKSFNRGECGGGGSLPMTGGLLGDFFRKSKEKIGKEFKRIVQRIKDFLRNLVPRTES
